Each block holds one binder with its values, some of them ahead of it. Where no end group is shown, it is not given here. Cy5.5 = Cy5.5 fluorophore
Key:
[1] = biological target: T1, Epidermal growth factor receptor (EGFR), human, on cells (human, UniProt P00533 25-1210); assay: apparent dissociation constant, flow cytometry on HT29 cells, 0-200 nM peptide, 4° C., R^2=0.95
T1 construct: whole, on cells; The expression level differs between cell lines (HT29 > SW480 > SW620); It is reduced in HT29 cells transfected with siEGFR
Description: We measured the apparent dissociation constant of the peptide to HT29 cells as an assessment of binding affinity. QRH*-Cy5.5 was serially diluted in PBS at concentrations of 0, 10, 25, 50, 75, 100, 125, 150 and 200 nM. HT29 cells (˜10⁵) were incubated with QRH*-Cy5.5 at 4° C. for 1 hour, washed with cold PBS, and the mean fluorescence intensities were measured on flow cytometry. The equilibrium dissociation constant kd=1/kₐ was calculated by performing a least squares fit of the data to the non-linear equation I=(I₀+Iₘₐₓkₐ[X])/([…]). I₀ and Iₘₐₓ are the initial and maximum fluorescence intensities, corresponding to no peptide and at saturation, respectively, and [X] represents the concentration of the bound peptide [Thomas et al., Clin Exp Metastasis, 26:105-119 (2009)]. Origin 6.1 data analysis software (OriginLab Corp) was used to calculate kd.

[2] = biological target: T1, Epidermal growth factor receptor …; assay: confocal fluorescence microscopy, FITC channel, OE21 cells

- Kd [1]: 50 nM
Binder: QRHKPREGGGSK(Cy5.5)-NH2 (also called EGFR peptide) [QRH*-Cy5.5 (QRHKPRE peptide with GGGSK linker and Cy5.5 fluorophore)]

- fold fluorescence intensity against the GGG* control peptide [2]: > 5 fold
B1: FITC labeled SHRNRPRNTQPS (SHR*) peptide (peptide)
peptide: SHRNRPRNTQPS
modifications: also: FITC label, site not given here
notes: also called SHR*-FITC; FITC-labeled peptide

Reference: patent US20200102349A1 (REGENTS OF THE UNIVERSITY OF MICHIGAN, published 2020)
